Literature values, collected in publication PMC3991732.
pKd: −log10 of the molar value.

Biological target: ubiquitin (Homo sapiens) (UniProt P0CG48)
Assay: NMR

CD2AP SH3-C, sequence (Q9Y5K6 269-330): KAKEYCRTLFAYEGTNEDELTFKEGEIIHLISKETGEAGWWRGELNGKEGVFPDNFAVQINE

Substance: CD2AP SH3-C (from UniProt Q9Y5K6)
- pKd: 3.88
